Reference: patent publication US9932404B2 (Janssen Biotech, Inc., dated 2018)

Columns and labels:
full length human TLR3 = full length human TLR3 (human); test: cell-based or functional assay
full-length murine TLR3 = full-length murine TLR3 (mouse); test: cell-based or functional assay

B1: mAb 1 (antibody, V domains shown)
V domain 1: GVELVQSGAEVKKPGESLKISCKGSGYSFTDNWISWVRQAPGKGLEWMGVIDPSDSYTNYAPSFQGQVTISADKSISTAYLQWSSLKASDTAMYYCAREWGIGGMVDIWG
V domain 2: DIVLTQSPATLSLSPGERATLSCRASQYIDISYLAWYQQKPGQAPRLLIYDASSRATGVPARFSGSGSGTDFTLTISSLEPEDFAVYYCQQYYSLSITFGQGTKVEIK
% inhibition of poly(I:C)-induced NF-κB luciferase reporter (full length human TLR3): > 50%

B2: mAb 2 (antibody, V domains shown)
VH: QVELVQSGAEVKKPGESLKISCKGSGYSFNNYWIGWVRQMPGKGLEWMGIIDPQDSWTNYAPSFQGQVTISADKSISTAYLQWSSLKASDTAMYYCARNIYEFDYWGQGTLVTVSS
VL: DIQMTQSPSSLSASVGDRVTITCRASQGISSWLNWYQQKPGKAPKLLIYGASNLQSGVPSRFSGSGSGTDFTLTISSLQPEDFAVYYCQQYDDFSITFGQGTKVEIK
% inhibition of poly(I:C)-induced NF-κB luciferase reporter (full length human TLR3): > 50%

B3: mAb 16 (antibody, V domains shown)
VH: QVELVQSGAEVKKPGESLKISCKGSGYSFNNYWIGWVRQMPGKGLEWMGIIDPGDSYTNYAPSFQGQVTISADKSISTAYLQWSSLKASDTAMYYCARNIYEFDYWGQGTLVTVSS
VL: DIQMTQSPSSLSASVGDRVTITCRASQGISSWLNWYQQKPGKAPKLLIYGASNLQSGVPSRFSGSGSGTDFTLTISSLQPEDFAVYYCQQYDDFSITFGQGTKVEIK
% inhibition of poly(I:C)-induced NF-κB luciferase reporter (full length human TLR3): > 50%

B4: mAb 5429 (antibody, V domains shown)
VH: EVQLVASGGGLVKPGASLKLSCVASGFTFSDYWMAWVRQTPGKPMEYIGDIKSDGSKVNYAPSLKNRFTISRDNARTTLYLQMSNVRSEDTATYYCNRDIGPDWYFDFWGPGTMVTVSS
VL: DIQMTQSPTSLSASLGETVTIECRASEDIYNGLAWYQQKPGKSPQLLIYDSNSLHTGVPSRFSGRGSGTQYSLRINSLQSEDVASYFCQQYYDYPLTFGSGTKLEIKR
IC50, poly(I:C)-induced ISRE luciferase reporter (full-length murine TLR3): 0.5 µg/mL

B5: mAb 8 (antibody, V domains shown)
VH: QVELQQSGPGLVKPSQTLSLTCAISGDSVSSNSAAWGWIRQSPGRGLEWLGIIQTRSKWYNDYAVSVKSRITINPDTSKNQFSLQLNSVTPEDTAVYYCARYSYPFYSIDYWGQGTLVTVSS
VL: DIELTQPPSVSVAPGQTARISCSGDNIGSYYVHWYQQKPGQAPVLVIYEDSERPSGIPERFSGSNSGNTATLTISGTQAEDEADYYCQSYDSQFSFGVFGGGTKLTVL
% inhibition of poly(I:C)-induced NF-κB luciferase reporter (full length human TLR3): > 50%

B6: mAb 18 (antibody, V domains shown)
VH: QVELQQSGPGLVKPSQTLSLTCAISGDSVSSNSAAWGWIRQSPGRGLEWLGIIQKRSKWYNNYAVSVKSRITINPDTSKNQFSLQLNSVTPEDTAVYYCARYSYPFYSIDYWGQGTLVTVSS
VL: DIELTQPPSVSVAPGQTARISCSGDNIGSYYVHWYQQKPGQAPVLVIYEDSERPSGIPERFSGSNSGNTATLTISGTQAEDEADYYCQSYDSQFSFGVFGGGTKLTVL
% inhibition of poly(I:C)-induced NF-κB luciferase reporter (full length human TLR3): > 50%

B7: mAb 10 (antibody, V domains shown)
VH: QVELQQSGPGLVKPSQTLSLTCAISGDSVSSNSAAWGWIRQSPGRGLEWLGIIQKRSKWYNNYAVSVKSRITINPDTSKNQFSLQLNSVTPEDTAVYYCARYSYPFYSIDYWGQGTLVTVSS
VL: DIELTQPPSVSVAPGQTARISCSGDNIGSYYVHWYQQKPGQAPVLVIYEDSERPSGIPERFSGSNSGNTATLTISGTQAEDEADYYCQSYDTPVYSVFGGGTKLTVL
% inhibition of poly(I:C)-induced NF-κB luciferase reporter (full length human TLR3): > 50%

B8: mAb 9 (antibody, V domains shown)
VH: QVELQQSGPGLVKPSQTLSLTCAISGDSVSSNSAAWGWIRQSPGRGLEWLGIIQIRSKWYNDYALSVKSRITINPDTSKNQFSLQLNSVTPEDTAVYYCARYSYPFYSIDYWGQGTLVTVSS
VL: DIELTQPPSVSVAPGQTARISCSGDNIGSYYVHWYQQKPGQAPVLVIYEDSERPSGIPERFSGSNSGNTATLTISGTQAEDEADYYCQSYDSQFSFGVFGGGTKLTVL
% inhibition of poly(I:C)-induced NF-κB luciferase reporter (full length human TLR3): > 50%

B9: mAb 11 (antibody, V domains shown)
VH: QVELQQSGPGLVKPSQTLSLTCAISGDSVSSNSAAWGWIRQSPGRGLEWLGIIQKRSKWYNNYAVSVKSRITINPDTSKNQFSLQLNSVTPEDTAVYYCARYSYPFYSIDYWGQGTLVTVSS
VL: DIELTQPPSVSVAPGQTARISCSGDNIGSYYVHWYQQKPGQAPVLVIYEDSERPSGIPERFSGSNSGNTATLTISGTQAEDEADYYCSSYDEPNFNVFGGGTKLTVL
% inhibition of poly(I:C)-induced NF-κB luciferase reporter (full length human TLR3): > 50%

B10: mAb 12 (antibody, V domains shown)
V domain 1: QVELQQSGPGLVKPSQTLSLTCAISGDSVSSNSAAWGWIRQSPGRGLEWLGIIQKRSKWYNNYAVSVKSRITINPDTSKNQFSLQLNSVTPEDTAVYYCARYSYPFYSIDYWGQGTLVTVSS
V domain 2: DIELQQSGPGLVKPSQTLSLTCAISGDSVSSNSAAWGWIRQSPGRGLEWLGIIQKRSKWYNNYAVSVKSRITINPDTSKNQFSLQLNSVTPEDTAVYYCARYSYPFYSIDYWGQGTLVTVSS
% inhibition of poly(I:C)-induced NF-κB luciferase reporter (full length human TLR3): > 50%

B11: mAb 3 (antibody, V domains shown)
VH: QVELQQSGPGLVKPSQTLSLTCAISGDSVSTRSAAWGWIRQSPGRGLEWLGRIHRRSKWYNDYAVSVKSRITINPDTSKNQFSLQLNSVTPEDTAVYYCARHTYPYLSFDVWGQGTLVTVSS
VL: DIELTQPPSVSVAPGQTARISCSGDALGGYFVSWYQQKPGQAPVLVIYDDDNRPSGIPERFSGSNSGNTATLTISGTQAEDEADYYCASYDGDEFTVFGGGTKLTVL
% inhibition of poly(I:C)-induced NF-κB luciferase reporter (full length human TLR3): > 50%

B12: mAb 4 (antibody, V domains shown)
VH: QVELQQSGPGLVKPSQTLSLTCAISGDSVSTRSAAWGWIRQSPGRGLEWLGKISYRSRWYNDYAVSVKSRITINPDTSKNQFSLQLNSVTPEDTAVYYCARHTYPYLSFDVWGQGTLVTVSS
VL: DIELTQPPSVSVAPGQTARISCSGDALGGYFVSWYQQKPGQAPVLVIYDDDNRPSGIPERFSGSNSGNTATLTISGTQAEDEADYYCASYDGDEFTVFGGGTKLTVL
% inhibition of poly(I:C)-induced NF-κB luciferase reporter (full length human TLR3): > 50%

B13: mAb 7 (antibody, V domains shown)
VH: QVELQQSGPGLVKPSQTLSLTCAISGDSVSTRSAAWGWIRQSPGRGLEWLGRIYMRSKWYNDYAVSVKSRITINPDTSKNQFSLQLNSVTPEDTAVYYCARHTYPYLSFDVWGQGTLVTVSS
VL: DIELTQPPSVSVAPGQTARISCSGDALGGYFVSWYQQKPGQAPVLVIYDDDNRPSGIPERFSGSNSGNTATLTISGTQAEDEADYYCSSYDSDSLTVFGGGTKLTVL
% inhibition of poly(I:C)-induced NF-κB luciferase reporter (full length human TLR3): > 50%

B14: mAb 17 (antibody, V domains shown)
VH: QVELQQSGPGLVKPSQTLSLTCAISGDSVSTRSAAWGWIRQSPGRGLEWLGRIYMRSKWYNDYAVSVKSRITINPDTSKNQFSLQLNSVTPEDTAVYYCARHTYPYLSFDVWGQGTLVTVSS
VL: DIELTQPPSVSVAPGQTARISCSGDALGGYFVSWYQQKPGQAPVLVIYDDDNRPSGIPERFSGSNSGNTATLTISGTQAEDEADYYCASYDGDEFTVFGGGTKLTVL
% inhibition of poly(I:C)-induced NF-κB luciferase reporter (full length human TLR3): > 50%

B15: mAb 5 (antibody, V domains shown)
VH: QVELQQSGPGLVKPSQTLSLTCAISGDSVSTRSAAWGWIRQSPGRGLEWLGRIYMRSKWYNDYAVSVKSRITINPDTSKNQFSLQLNSVTPEDTAVYYCARHTYPYLSFDVWGQGTLVTVSS
VL: DIELTQPPSVSVAPGQTARISCSGDALGGYFVSWYQQKPGQAPVLVIYDDDNRPSGIPERFSGSNSGNTATLTISGTQAEDEADYYCQSYDEDSATVFGGGTKLTVL
% inhibition of poly(I:C)-induced NF-κB luciferase reporter (full length human TLR3): > 50%

B16: mAb 6 (antibody, V domains shown)
VH: QVELQQSGPGLVKPSQTLSLTCAISGDSVSTRSAAWGWIRQSPGRGLEWLGRIYMRSKWYNDYAVSVKSRITINPDTSKNQFSLQLNSVTPEDTAVYYCARHTYPYLSFDVWGQGTLVTVSS
VL: DIELTQPPSVSVAPGQTARISCSGDALGGYFVSWYQQKPGQAPVLVIYDDDNRPSGIPERFSGSNSGNTATLTISGTQAEDEADYYCGSYDSNSLTVFGGGTKLTVL
% inhibition of poly(I:C)-induced NF-κB luciferase reporter (full length human TLR3): > 50%

B17: mAb 15 (antibody)
heavy: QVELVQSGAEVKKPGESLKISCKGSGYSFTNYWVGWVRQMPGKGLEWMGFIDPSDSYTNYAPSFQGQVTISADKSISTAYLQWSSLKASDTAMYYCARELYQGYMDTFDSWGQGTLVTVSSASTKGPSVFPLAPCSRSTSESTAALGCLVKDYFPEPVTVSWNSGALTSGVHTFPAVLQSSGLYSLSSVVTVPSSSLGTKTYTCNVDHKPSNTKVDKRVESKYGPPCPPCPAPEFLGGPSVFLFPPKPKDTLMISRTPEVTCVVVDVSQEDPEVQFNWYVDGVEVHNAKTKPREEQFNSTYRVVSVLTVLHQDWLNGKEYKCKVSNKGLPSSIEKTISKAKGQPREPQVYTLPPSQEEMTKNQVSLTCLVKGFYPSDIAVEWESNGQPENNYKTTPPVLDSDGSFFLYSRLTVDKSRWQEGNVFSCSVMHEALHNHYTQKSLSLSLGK
light: DIQMTQSPSSLSASVGDRVTITCRASQSIGLYLAWYQQKPGKAPKLLIYAASSLQSGVPSRFSGSGSGTDFTLTISSLQPEDFATYYCQQGNTLSYTFGQGTKVEIKRTVAAPSVFIFPPSDEQLKSGTASVVCLLNNFYPREAKVQWKVDNALQSGNSQESVTEQDSKDSTYSLSSTLTLSKADYEKHKVYACEVTHQGLSSPVTKSFNRGEC
IC50, poly(I:C)-induced ISRE luciferase reporter (full-length murine TLR3): 22 µg/mL | % inhibition of poly(I:C)-induced NF-κB luciferase reporter (full length human TLR3): > 50%

B18: mAb 13 (antibody, V domains shown)
VH: QVELVQSGAEVKKPGESLKISCKGSGYSFTNYWVGWVRQMPGKGLEWMGFIDPSDSYTNYAPSFQGQVTISADKSISTAYLQWSSLKASDTAMYYCARELYQGYMDTFDSWGQGTLVTVSS
VL: DIQMTQSPSSLSASVGDRVTITCRASQSIGLYLAWYQQKPGKAPKLLIYAASSLQSGVPSRFSGSGSGTDFTLTISSLQPEDFATYYCQQGESILSTFGQGTKVEIK
% inhibition of poly(I:C)-induced NF-κB luciferase reporter (full length human TLR3): > 50%

B19: mAb 19 (antibody, V domains shown)
VH: QVELVQSGAEVKKPGESLKISCKGSGYSFTNYWVGWVRQMPGKGLEWMGFIDPSDSYTNYAPSFQGQVTISADKSISTAYLQWSSLKASDTAMYYCARELYQGYMDTFDSWGQGTLVTVSS
VL: DIQMTQSPSSLSASVGDRVTITCRASQSIGLYLAWYQQKPGKAPKLLIYAASSLQSGVPSRFSGSGSGTDFTLTISSLQPEDFATYYCQQYGSVSITFGQGTKVEIK
% inhibition of poly(I:C)-induced NF-κB luciferase reporter (full length human TLR3): > 50%

B20: mAb 14 (antibody, V domains shown)
VH: QVELVQSGAEVKKPGESLKISCKGSGYSFTNYWVGWVRQMPGKGLEWMGFIDPSDSYTNYAPSFQGQVTISADKSISTAYLQWSSLKASDTAMYYCARELYQGYMDTFDSWGQGTLVTVSS
VL: DIQMTQSPSSLSASVGDRVTITCRASQSIGLYLAWYQQKPGKAPKLLIYAASSLQSGVPSRFSGSGSGTDFTLTISSLQPEDFATYYCQQAETVSPTFGQGTKVEIKR
% inhibition of poly(I:C)-induced NF-κB luciferase reporter (full length human TLR3): > 50%
